The conditions of the series: Escherichia coli (strain K12), pH 7.8, Urea, CD, Potassium phosphate 10 mM, whole UniProt chain shown.

Values joined by “and” are separate entries in the source; they are usually repeats but may differ in a detail not shown here. Equal entries are not always repeated.

B1: Tryptophan synthase alpha chain wild type, P0A877 (protein)
chain: MERYESLFAQLKERKEGAFVPFVTLGDPGIEQSLKIIDTLIEAGADALELGIPFSDPLADGPTIQNATLRAFAAGVTPAQCFEMLALIRQKHPTIPIGLLMYANLVFNKGIDEFYAQCEKVGVDSVLVADVPVEESAPFRQAALRHNVAPIFICPPNADDDLLRQIASYGRGYTYLLSRAGVTGAENRAALPLNHLVAKLKEYNAAPPLQGFGISAPDQVKAAIDAGAAGAISGSAIVKIIEQHINEPEKMLAALKVFVQPMKAATRS
Regarding B1, for the setting “4 °C”, the denaturant m value was 3.1 kcal/mol/M and 1.9 kcal/mol/M; the “denaturant midpoint (higher = more stable)” value was 1.63 M and 3.17 M; the unfolding free energy was 5 kcal/mol and 6 kcal/mol. Under “25 °C”, the denaturant m value amounted to 1.2 kcal/mol/M, the “denaturant midpoint (higher = more stable)” value was found to be 4.18 M and the unfolding free energy stood at 5 kcal/mol.
